US20140256789

What was measured:
[1] = biological target: p53 (wild-type, endogenous) (Homo sapiens) (UniProt P04637); experiment: cell_activity; conditions: fold decrease in luciferase on p53 siRNA knockdown in HCT116
[2] = system: p53 (wild-type, transfected); experiment: cell_activity; conditions: luciferase reporter in H1299 with wtp53, fold above pGL3-basic

Chain of p53 (wild-type, endogenous) (Homo sapiens) (P04637 whole entry): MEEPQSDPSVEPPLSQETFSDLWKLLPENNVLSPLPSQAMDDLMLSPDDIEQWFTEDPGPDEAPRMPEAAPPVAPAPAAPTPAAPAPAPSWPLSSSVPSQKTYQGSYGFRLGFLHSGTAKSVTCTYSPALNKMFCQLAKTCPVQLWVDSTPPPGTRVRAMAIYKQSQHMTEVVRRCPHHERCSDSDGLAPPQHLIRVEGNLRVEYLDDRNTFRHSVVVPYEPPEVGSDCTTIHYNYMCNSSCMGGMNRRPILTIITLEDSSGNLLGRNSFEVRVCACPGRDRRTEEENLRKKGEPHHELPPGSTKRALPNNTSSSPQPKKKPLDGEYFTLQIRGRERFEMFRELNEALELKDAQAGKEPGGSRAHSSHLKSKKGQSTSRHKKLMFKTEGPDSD

Q: Which activity [1] does the source give for “EST-Prom-luc (about 2 kb miR-34a promoter region with p53BS)” here?
A: > 3 fold

Q: And the activity [2]?
A: 20 fold
